According to publication PMC12525626, “Phosphorylation as a candidate regulatory mechanism for effector recruitment to tankyrase” (Royal Society Open Science, 2025):
Square brackets hold non-standard residues; d marks the D form. 5(6)‑carboxyfluorescein = 5(6)-carboxyfluorescein; pS = N[C@@H](COP(=O)(O)O)C(=O)O; βAla = NCCC(=O)O

T1: Human TNKS2 ARC4 (residues 488-649), wild type (human, UniProt Q9H2K2 488-649)
T1 construct: Tankyrase-2 (TNKS2), human, ankyrin repeat cluster 4, residues 488-649 of NM_025235.2, from the construct pETM30-2-TNKS2 ARC4; Monomeric by SEC-MALS; also called WT ARC4; tankyrase ankyrin repeat cluster 4; source: E. coli BL21-CodonPlus(DE3)-RIL, purified (HisTrap, TEV cleavage, second HisTrap, Superdex 75)
T1 sequence (looked up): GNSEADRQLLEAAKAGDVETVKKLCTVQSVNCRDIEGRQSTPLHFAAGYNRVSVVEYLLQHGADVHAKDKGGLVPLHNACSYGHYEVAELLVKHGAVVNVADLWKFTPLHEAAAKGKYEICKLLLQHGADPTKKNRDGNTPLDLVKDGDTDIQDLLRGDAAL

B1: MDC1 phospho-TBM1 peptide for co-crystallization (acetyl-943ERDTQRGEPEGG-pS-QDQ958-NH2) (peptide)
peptide: Ac-ERDTQRGEPEGG[pS]QDQ-NH2
SMILES: CC(=O)N[C@@H](CCC(=O)O)C(=O)N[C@@H](CCCNC(=N)N)C(=O)N[C@@H](CC(=O)O)C(=O)N[C@H](C(=O)N[C@@H](CCC(N)=O)C(=O)N[C@@H](CCCNC(=N)N)C(=O)NCC(=O)N[C@@H](CCC(=O)O)C(=O)N1CCC[C@H]1C(=O)N[C@@H](CCC(=O)O)C(=O)NCC(=O)NCC(=O)N[C@@H](COP(=O)(O)O)C(=O)N[C@@H](CCC(N)=O)C(=O)N[C@@H](CC(=O)O)C(=O)N[C@@H](CCC(N)=O)C(N)=O)[C@@H](C)O
notes: Mediator of DNA damage checkpoint protein 1 (MDC1), human, residues 943-958 around TBM1; also called phospho-MDC1 peptide; source: synthetic peptide (JPT, Berlin; HPLC-purified)
B2: MDC1 TBM1 peptide, non-phosphorylated (5(6)-carboxyfluorescein-βAla-QRGEPEGGSQ-NH2) (peptide)
peptide: {5(6)‑carboxyfluorescein-βAla}-QRGEPEGGSQ-NH2
notes: also called Non-phosphorylated TBM1; source: synthetic peptide (JPT, Berlin; crude stock, greater than 70% pure by HPLC)

What was measured:
[1] = target: T1, Human TNKS2 ARC4 (residues 488-649), …; test: crystal structure; TNKS2 ARC4 at 20 mg/ml with 1.5-fold molar excess of phospho-MDC1 peptide in 25 mM HEPES-NaOH pH 7.5, 100 mM NaCl, 2 mM TCEP; sitting drop, 4°C, 0.1 M Na cacodylate pH 6.5, 0.2 M Na acetate, 30% PEG 8000; molecular replacement; conditions: both partners purified
[2] = target: T1, Human TNKS2 ARC4 (residues 488-649), …; test: fluorescence polarisation; carboxyfluorescein-labelled MDC1 TBM1 peptides with TNKS2 ARC4 protein (no-protein wells as baseline); POLARstar Omega plate reader; n = 3 separate experiments in technical duplicate; one-site total binding model, standard errors of the fit; conditions: both partners purified

| Binder | binding result [1] | Kd [2] [µM] |
| --- | --- | --- |
| B1 | binds | – |
| B2 | – | 4.5 |
